Reference: paper PMC5503505 (Nature structural & molecular biology, 2017)

T1: Mcm4 (S. cerevisiae, UniProt P30665 1-933)
T1 sequence: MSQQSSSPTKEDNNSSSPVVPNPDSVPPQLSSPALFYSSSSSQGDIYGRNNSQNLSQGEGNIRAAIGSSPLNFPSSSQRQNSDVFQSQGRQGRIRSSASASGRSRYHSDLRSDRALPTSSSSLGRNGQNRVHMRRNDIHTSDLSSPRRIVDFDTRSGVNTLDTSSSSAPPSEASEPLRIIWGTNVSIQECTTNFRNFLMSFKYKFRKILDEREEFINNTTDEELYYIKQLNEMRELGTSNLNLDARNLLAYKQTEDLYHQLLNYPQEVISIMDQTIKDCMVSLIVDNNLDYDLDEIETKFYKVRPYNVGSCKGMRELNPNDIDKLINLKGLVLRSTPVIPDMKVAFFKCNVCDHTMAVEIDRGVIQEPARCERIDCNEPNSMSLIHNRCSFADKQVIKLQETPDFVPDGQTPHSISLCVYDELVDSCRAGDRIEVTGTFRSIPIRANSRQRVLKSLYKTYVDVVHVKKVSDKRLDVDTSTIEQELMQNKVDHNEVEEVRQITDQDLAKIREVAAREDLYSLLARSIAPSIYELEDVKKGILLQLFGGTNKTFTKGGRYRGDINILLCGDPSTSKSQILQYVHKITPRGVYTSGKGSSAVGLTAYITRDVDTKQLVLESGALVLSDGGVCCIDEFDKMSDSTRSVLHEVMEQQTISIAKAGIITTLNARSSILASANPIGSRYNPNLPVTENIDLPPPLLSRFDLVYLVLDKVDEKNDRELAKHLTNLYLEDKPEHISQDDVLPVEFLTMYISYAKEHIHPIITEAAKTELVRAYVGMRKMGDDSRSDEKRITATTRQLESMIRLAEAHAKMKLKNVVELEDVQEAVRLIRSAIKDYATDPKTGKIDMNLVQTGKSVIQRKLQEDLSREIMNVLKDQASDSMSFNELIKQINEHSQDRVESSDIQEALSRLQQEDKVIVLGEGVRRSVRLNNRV

B1: Cdt1 (natural protein)
chain: MSGTANSRRKEVLRVPVIDLNRVSDEEQLLPVVRAILLQHDTFLLKNYANKAVLDALLAGLTTKDLPDTSQGFDANFTGTLPLEDDVWLEQYIFDTDPQLRFDRKCRNESLCSIYSRLFKLGLFFAQLCVKSVVSSAELQDCISTSHYATKLTRYFNDNGSTHDGADAGATVLPTGDDFQYLFERDYVTFLPTGVLTIFPCAKAIRYKPSTMATTDNSWVSIDEPDCLLFHTGTLLARWSQGMHTTSPLQIDPRANIVSLTIWPPLTTPISSKGEGTIANHLLEQQIKAFPKVAQQYYPRELSILRLQDAMKFVKELFTVCETVLSLNALSRSTGVPPELHVLLPQISSMMKRKIVQDDILKLLTIWSDAYVVELNSRGELTMNLPKRDNLTTLTNKSRTLAFVERAESWYQQVIASKDEIMTDVPAFKINKRRSSSNSKTVLSSKVQTKSSNANALNNSRYLANSKENFMYKEKMPDSQANLMDRLRERERRSAALLSQRQKRYQQFLAMKMTQVFDILFSLTRGQPYTETYLSSLIVDSLQDSNNPIGTKEASEILAGLQGILPMDISVHQVDGGLKVYRWNSLDKNRFSKLLQIHKSKQQD
B2: Orc1 (natural protein)
chain: MAKTLKDLQGWEIITTDEQGNIIDGGQKRLRRRGAKTEHYLKRSSDGIKLGRGDSVVMHNEAAGTYSVYMIQELRLNTLNNVVELWALTYLRWFEVNPLAHYRQFNPDANILNRPLNYYNKLFSETANKNELYLTAELAELQLFNFIRVANVMDGSKWEVLKGNVDPERDFTVRYICEPTGEKFVDINIEDVKAYIKKVEPREAQEYLKDLTLPSKKKEIKRGPQKKDKATQTAQISDAETRATDITDNEDGNEDESSDYESPSDIDVSEDMDSGEISADELEEEEDEEEDEDEEEKEARHTNSPRKRGRKIKLGKDDIDASVQPPPKKRGRKPKDPSKPRQMLLISSCRANNTPVIRKFTKKNVARAKKKYTPFSKRFKSIAAIPDLTSLPEFYGNSSELMASRFENKLKTTQKHQIVETIFSKVKKQLNSSYVKEEILKSANFQDYLPARENEFASIYLSAYSAIESDSATTIYVAGTPGVGKTLTVREVVKELLSSSAQREIPDFLYVEINGLKMVKPTDCYETLWNKVSGERLTWAASMESLEFYFKRVPKNKKKTIVVLLDELDAMVTKSQDIMYNFFNWTTYENAKLIVIAVANTMDLPERQLGNKITSRIGFTRIMFTGYTHEELKNIIDLRLKGLNDSFFYVDTKTGNAILIDAAGNDTTVKQTLPEDVRKVRLRMSADAIEIASRKVASVSGDARRALKVCKRAAEIAEKHYMAKHGYGYDGKTVIEDENEEQIYDDEDKDLIESNKAKDDNDDDDDNDGVQTVHITHVMKALNETLNSHVITFMTRLSFTAKLFIYALLNLMKKNGSQEQELGDIVDEIKLLIEVNGSNKFVMEIAKTLFQQGSDNISEQLRIISWDFVLNQLLDAGILFKQTMKNDRICCVKLNISVEEAKRAMNEDETLRNL

Key:
Assay in all cases: cryo-EM structure
[1] = target: B2
[2] = target: B1
[3] = target: Mcm6 (S. cerevisiae, UniProt P53091 1-1017)
[4] = target: T1, Mcm4
[5] = target: Mcm3 (S. cerevisiae, UniProt P24279 1-971)
Chain of Mcm3 (P24279 whole entry): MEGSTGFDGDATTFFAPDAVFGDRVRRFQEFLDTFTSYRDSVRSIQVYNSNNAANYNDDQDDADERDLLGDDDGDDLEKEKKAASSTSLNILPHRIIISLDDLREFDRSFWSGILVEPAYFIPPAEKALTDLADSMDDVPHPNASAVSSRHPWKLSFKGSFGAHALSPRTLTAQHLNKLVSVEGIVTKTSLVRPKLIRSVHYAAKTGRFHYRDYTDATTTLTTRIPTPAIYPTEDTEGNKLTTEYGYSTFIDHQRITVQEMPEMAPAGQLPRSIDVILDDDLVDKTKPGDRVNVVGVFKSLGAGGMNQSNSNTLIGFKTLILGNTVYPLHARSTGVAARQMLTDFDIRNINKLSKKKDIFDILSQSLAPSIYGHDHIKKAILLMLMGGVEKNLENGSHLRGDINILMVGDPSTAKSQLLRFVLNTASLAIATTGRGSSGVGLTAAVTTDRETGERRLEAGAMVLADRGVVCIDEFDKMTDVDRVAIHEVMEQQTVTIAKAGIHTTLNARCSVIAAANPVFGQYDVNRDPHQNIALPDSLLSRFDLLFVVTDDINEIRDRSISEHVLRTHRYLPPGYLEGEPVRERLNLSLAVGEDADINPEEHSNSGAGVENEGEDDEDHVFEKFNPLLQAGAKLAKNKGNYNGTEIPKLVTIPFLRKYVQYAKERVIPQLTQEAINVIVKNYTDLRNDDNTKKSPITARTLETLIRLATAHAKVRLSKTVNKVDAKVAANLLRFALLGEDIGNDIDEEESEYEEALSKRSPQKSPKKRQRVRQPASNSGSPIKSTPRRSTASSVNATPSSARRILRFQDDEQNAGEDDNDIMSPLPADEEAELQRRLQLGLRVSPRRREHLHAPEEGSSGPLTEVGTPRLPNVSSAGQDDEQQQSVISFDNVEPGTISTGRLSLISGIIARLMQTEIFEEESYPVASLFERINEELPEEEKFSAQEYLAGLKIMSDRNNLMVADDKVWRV

Chain of Mcm6 (P53091 whole entry): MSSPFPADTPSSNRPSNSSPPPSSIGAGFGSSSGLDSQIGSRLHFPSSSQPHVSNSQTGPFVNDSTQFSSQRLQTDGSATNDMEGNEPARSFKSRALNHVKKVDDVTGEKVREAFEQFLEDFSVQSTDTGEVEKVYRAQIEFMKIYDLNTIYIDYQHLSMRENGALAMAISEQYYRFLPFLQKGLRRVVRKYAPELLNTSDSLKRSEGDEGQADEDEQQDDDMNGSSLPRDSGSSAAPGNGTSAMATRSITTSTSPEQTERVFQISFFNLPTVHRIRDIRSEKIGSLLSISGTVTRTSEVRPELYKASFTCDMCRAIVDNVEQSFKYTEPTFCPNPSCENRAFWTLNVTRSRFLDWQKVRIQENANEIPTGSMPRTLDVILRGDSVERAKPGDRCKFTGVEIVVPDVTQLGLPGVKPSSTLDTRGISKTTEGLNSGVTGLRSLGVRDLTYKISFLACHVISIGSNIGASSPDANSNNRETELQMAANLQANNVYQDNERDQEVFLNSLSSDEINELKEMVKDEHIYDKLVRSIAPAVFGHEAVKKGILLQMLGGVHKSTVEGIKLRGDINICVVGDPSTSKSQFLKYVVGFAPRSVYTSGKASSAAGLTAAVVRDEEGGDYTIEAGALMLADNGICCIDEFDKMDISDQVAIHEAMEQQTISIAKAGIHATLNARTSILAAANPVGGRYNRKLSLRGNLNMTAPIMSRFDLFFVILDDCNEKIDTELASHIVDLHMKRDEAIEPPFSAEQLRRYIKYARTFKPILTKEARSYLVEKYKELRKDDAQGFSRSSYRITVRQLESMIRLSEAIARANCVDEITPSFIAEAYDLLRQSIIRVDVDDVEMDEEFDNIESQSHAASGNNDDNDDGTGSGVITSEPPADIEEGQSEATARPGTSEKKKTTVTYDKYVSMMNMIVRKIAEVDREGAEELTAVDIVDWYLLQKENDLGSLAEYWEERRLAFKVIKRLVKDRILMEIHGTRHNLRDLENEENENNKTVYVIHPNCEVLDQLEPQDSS

Binder | binding result [1] | binding result [2] | binding result [3] | binding result [4] | binding result [5]
Orc4 (natural protein) MTISEARLSPQVNLLPIKRHSNEEVEETAAILKKRTIDNEKCKDSDPGFGSLQRRLLQQLYGTLPTDEKIIFTYLQDCQQEIDRIIKQSIIQKESHSVILVGPRQSYKTYLLDYELSLLQQSYKEQFITIRLNGFIHSEQTAINGIATQLEQQLQKIHGSEEKIDDTSLETISSGSLTEVFEKILLLLDSTTKTRNEDSGEVDRESITKITVVFIFDEIDTFAGPVRQTLLYNLFDMVEHSRVPVCIFGCTTKLNILEYLEKRVKSRFSQRVIYMPQIQNLDDMVDAVRNLLTVRSEISPWVSQWNETLEKELSDPRSNLNRHIRMNFETFRSLPTLKNSIIPLVATSKNFGSLCTAIKSCSFLDIYNKNQLSNNLTGRLQSLSDLELAILISAARVALRAKDGSFNFNLAYAEYEKMIKAINSRIPTVAPTTNVGTGQSTFSIDNTIKLWLKKDVKNVWENLVQLDFFTEKSAVGLRDNATAAFYASNYQFQGTMIPFDLRSYQMQIILQELRRIIPKSNMYYSWTQL | binds | binds | binds |  | 
Mcm7 (natural protein) MSAALPSIQLPVDYNNLFNEITDFLVTFKQDTLSSDATRNENEDENLDAENIEQHLLEKGPKYMAMLQKVANRELNSVIIDLDDILQYQNEKFLQGTQADDLVSAIQQNANHFTELFCRAIDNNMPLPTKEIDYKDDVLDVILNQRRLRNERMLSDRTNEIRSENLMDTTMDPPSSMNDALREVVEDETELFPPNLTRRYFLYFKPLSQNCARRYRKKAISSKPLSVRQIKGDFLGQLITVRGIITRVSDVKPAVEVIAYTCDQCGYEVFQEVNSRTFTPLSECTSEECSQNQTKGQLFMSTRASKFSAFQECKIQELSQQVPVGHIPRSLNIHVNGTLVRSLSPGDIVDVTGIFLPAPYTGFKALKAGLLTETYLEAQFVRQHKKKFASFSLTSDVEERVMELITSGDVYNRLAKSIAPEIYGNLDVKKALLLLLVGGVDKRVGDGMKIRGDINVCLMGDPGVAKSQLLKAICKISPRGVYTTGKGSSGVGLTAAVMKDPVTDEMILEGGALVLADNGICCIDEFDKMDESDRTAIHEVMEQQTISISKAGINTTLNARTSILAAANPLYGRYNPRLSPLDNINLPAALLSRFDILFLMLDIPSRDDDEKLAEHVTYVHMHNKQPDLDFTPVEPSKMREYIAYAKTKRPVMSEAVNDYVVQAYIRLRQDSKREMDSKFSFGQATPRTLLGIIRLSQALAKLRLADMVDIDDVEEALRLVRVSKESLYQETNKSKEDESPTTKIFTIIKKMLQETGKNTLSYENIVKTVRLRGFTMLQLSNCIQEYSYLNVWHLINEGNTLKFVDDGTMDTDQEDSLVSTPKLAPQTTASANVSAQDSDIDLQDA |  |  |  | binds | binds
B1 |  |  | binds |  | 
B2 |  |  |  | binds | 
